# Assay results: patent US20230174642A1, “AFFINITY-MATURATED ANTI-ASIC1a ANTIBODIES” (SHANGHAITECH UNIVERSITY, priority 2019, published 2023)
# T1: rat ASIC1a (rASIC1a-eYFP) (Rattus norvegicus, UniProt P55926)
# T1 construct: expressed in transfected cells; host or cells: CHO-K1 (transient)
# T1 sequence (P55926 1-526): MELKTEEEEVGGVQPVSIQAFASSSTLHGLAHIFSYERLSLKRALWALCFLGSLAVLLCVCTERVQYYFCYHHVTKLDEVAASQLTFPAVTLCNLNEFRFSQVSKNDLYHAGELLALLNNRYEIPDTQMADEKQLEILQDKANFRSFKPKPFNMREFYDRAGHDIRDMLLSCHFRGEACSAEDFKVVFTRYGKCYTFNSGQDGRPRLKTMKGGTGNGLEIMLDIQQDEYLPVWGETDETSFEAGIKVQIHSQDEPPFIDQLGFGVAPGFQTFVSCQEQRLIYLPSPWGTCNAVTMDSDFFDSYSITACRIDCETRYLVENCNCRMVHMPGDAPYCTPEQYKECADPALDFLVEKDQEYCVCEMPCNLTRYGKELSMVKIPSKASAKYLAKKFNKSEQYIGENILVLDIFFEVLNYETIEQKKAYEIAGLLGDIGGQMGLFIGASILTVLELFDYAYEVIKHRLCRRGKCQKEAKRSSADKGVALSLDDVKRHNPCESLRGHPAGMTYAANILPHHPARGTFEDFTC
# T2: human ASIC1a (hASIC1a-eYFP) (Homo sapiens, UniProt P78348)
# T2 construct: expressed in transfected cells; host or cells: CHO-K1 (transient)
# T2 sequence (P78348 1-528): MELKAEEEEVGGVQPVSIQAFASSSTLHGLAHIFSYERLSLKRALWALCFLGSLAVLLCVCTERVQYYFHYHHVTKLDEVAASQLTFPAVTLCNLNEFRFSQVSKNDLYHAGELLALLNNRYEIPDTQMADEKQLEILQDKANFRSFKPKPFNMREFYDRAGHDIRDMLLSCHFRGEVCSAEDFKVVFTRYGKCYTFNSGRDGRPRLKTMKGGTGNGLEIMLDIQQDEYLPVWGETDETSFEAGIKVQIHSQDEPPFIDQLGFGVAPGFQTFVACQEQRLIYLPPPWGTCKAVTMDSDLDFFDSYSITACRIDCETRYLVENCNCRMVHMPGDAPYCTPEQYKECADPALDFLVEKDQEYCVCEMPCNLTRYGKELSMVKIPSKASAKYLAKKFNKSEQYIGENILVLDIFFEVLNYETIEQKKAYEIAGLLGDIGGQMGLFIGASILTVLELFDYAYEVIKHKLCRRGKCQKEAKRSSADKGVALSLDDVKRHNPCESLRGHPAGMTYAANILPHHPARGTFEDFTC
# T3: ASIC1a (Homo sapiens, UniProt P78348)
# T3 construct: expressed in transfected cells
# T3 sequence (P78348 1-528): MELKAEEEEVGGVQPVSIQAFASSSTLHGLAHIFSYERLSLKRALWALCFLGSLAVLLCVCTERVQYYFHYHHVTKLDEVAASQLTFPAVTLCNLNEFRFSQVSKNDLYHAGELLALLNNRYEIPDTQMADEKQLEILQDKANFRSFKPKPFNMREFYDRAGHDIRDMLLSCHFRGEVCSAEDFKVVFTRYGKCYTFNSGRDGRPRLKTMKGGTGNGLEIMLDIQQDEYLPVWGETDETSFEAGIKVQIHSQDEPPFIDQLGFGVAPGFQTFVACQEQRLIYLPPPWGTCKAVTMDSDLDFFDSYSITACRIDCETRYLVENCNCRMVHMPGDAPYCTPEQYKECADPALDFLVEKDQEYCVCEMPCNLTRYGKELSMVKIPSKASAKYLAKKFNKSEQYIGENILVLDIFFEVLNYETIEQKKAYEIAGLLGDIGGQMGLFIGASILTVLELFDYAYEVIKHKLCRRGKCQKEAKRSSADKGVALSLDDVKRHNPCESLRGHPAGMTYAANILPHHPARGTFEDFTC
# T4: hASIC1a on CHO-K1 cells stably expressing hASIC1a (human, UniProt P78348 1-528)
# T4 sequence (looked up): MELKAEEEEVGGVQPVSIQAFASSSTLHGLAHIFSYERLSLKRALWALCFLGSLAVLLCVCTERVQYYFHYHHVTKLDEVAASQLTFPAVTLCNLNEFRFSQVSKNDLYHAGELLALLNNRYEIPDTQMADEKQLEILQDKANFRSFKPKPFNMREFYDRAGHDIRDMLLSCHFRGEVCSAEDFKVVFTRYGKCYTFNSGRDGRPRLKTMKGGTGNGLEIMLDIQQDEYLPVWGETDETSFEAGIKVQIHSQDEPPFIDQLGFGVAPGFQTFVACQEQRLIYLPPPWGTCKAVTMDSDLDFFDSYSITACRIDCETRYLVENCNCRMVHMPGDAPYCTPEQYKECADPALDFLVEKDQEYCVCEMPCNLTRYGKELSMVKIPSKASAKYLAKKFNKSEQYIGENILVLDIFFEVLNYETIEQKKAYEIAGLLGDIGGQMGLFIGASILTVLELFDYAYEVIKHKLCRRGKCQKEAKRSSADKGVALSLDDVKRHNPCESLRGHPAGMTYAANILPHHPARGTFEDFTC
# T5: recombinant extracellular domain of hASIC1a (hASIC1a-ECD) (human, UniProt P78348 67-427, limits assumed)
# T5 construct: extracellular domain; ASIC1a is one splice isoform of it; also called trimeric ectodomain of hASIC1a
# T5 sequence (looked up): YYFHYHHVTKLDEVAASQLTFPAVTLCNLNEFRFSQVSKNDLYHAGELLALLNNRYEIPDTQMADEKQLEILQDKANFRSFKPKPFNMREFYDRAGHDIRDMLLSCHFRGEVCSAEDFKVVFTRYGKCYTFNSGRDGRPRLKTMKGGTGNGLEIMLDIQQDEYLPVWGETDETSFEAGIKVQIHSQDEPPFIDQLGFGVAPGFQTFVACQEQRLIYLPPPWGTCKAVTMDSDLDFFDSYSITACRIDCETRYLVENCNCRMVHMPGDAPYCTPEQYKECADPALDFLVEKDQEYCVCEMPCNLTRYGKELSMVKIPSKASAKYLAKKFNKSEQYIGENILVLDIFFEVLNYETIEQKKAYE
# Tests used:
# [1] = target: T1, rat ASIC1a (rASIC1a-eYFP); assay: FACS-based binding assay, transiently transfected CHO-K1 cells (species selectivity); conditions: double positive population
# Description: (§1) To investigate the species selectivity of ASC06-IgG1 affinity-matured antibodies, plasmids encoding fusion proteins of eYFP with […] homologs of ASIC1a were constructed. These plasmids included those encoding human ASIC1a (hASIC1a-eYFP), mouse ASIC1a (mASIC1a-eYFP), and rat ASIC1a (rASIC1a-eYFP). CHO-K1 cells were transiently transfected with the ASIC1a-eYFP plasmids, and a fluorescence activated cell sorting (FACS)-based binding assay was carried out to determine binding to the homologs or isoforms of ASIC1a expressed on the cell surface. An isotype control was used as a negative control for binding (NC). ASC06-IgG1 was used as a positive control. Summarily, the CHO-K1 cells expressing the ASIC1a-eYFP (green) homologs were stained with the indicated antibody (red) and subjected to FACS.
# [2] = target: T2, human ASIC1a (hASIC1a-eYFP); assay: as above; conditions: double positive population
# Description: as §1
# [3] = target: T3, ASIC1a; assay: Patch clamp whole-cell recording of acid-induced hASIC1a currents; format: cell-based; conditions: for blockage of ASIC1a-mediated currents compared to ASC06-IgG1: 100 nM antibody
# Description: FIGS. 4A-4E show the effect of affinity-matured ASC06-IgG1 derivative antibodies on the hASIC1a currents. Shown are the representative current traces recorded from single CHO-K1 cells stably expressing hASIC1a in the absence or presence of 100 nM ASC06-IgG1 (FIG. 4A) or affinity-matured ASC06-IgG1 versions ASC06-01-IgG1 (FIG. 4B), ASC06-02-IgG1 (FIG. 4C), ASC06-03-IgG1 (FIG. 4D), or ASC06-04-IgG1 (FIG. 4E). Amiloride (30 μM) was used as a positive control. “Wash” represents the recovery of the current after the treatment of 100 nM indicated antibody followed by 15 min infusion of washing solution.
# Whether the affinity-matured ASC06-IgG1 derivative antibodies have an effect on the acid-induced, hASIC1a-mediated electrical current in cells was tested. An hASIC1a overexpressing stable cell line was used as a model for these studies. Extracellular pH was decreased from pH 7.4 to pH 6.0 and the amplitudes of the hASIC1a-mediated inward currents were recorded in the whole-cell recording mode in the presence of the affinity-matured ASC06-IgG1 derivative antibodies (FIGS. 4A-4E). The ASIC1a inhibitor amiloride (30 μM) was used as a positive control for the inhibition of ASIC1a currents.
# [4] = target: T4, hASIC1a on CHO-K1 cells stably …; assay: cell-based or functional assay
# [5] = target: T5, recombinant extracellular domain of …; assay: SPR, Biacore T200, hASIC1a-ECD immobilized, IgG1 as analyte
# Description: Binding affinities of four affinity-matured antibodies in IgG1 format (ASC06-01-IgG1 through ASC06-04-IgG1) to the recombinant extracellular domain of hASIC1a(hASIC1a-ECD) were measured using the Biacore T200™ (GE Healthcare). The ASC06-IgG1 antibody was used as a positive control. All manipulations were followed by the user guide of manufacturer. Briefly, was hASIC1a was immobilized, and serial dilutions of the indicated antibodies were added as analytes. The analysis of the results were processed in BIA Evaluation Software™.
Molecule,binding to cells expressing rASIC1a-eYFP [1],binding to cells expressing hASIC1a-eYFP [2],blockage of ASIC1a-mediated currents compared to ASC06-IgG1 [3],"Percent inhibition of the acid induced-hASIC1a currents ([3]; 300 nM antibody, pH 7.4 to pH 6.0, mean ± standard deviation) [%]","Percent inhibition of the acid induced-hASIC1a currents, 100 nM antibody (Patch Clamp) [4] [%]",Kd [5] [nM],koff [5] [s⁻¹],kon [5] [M⁻¹ s⁻¹]
"ASC06-01-IgG1: affinity-matured ASC06 derivative, VH-CDR3 DSYFGYSKGD (SEQ ID NO: 11) (antibody, V domains shown) VH: QVQLQQSGGGLVQPGGSLRLSCAASGFTFSSYAMSWVRQAPGKGLEWVSAISGSGGSTYYADSVKGRFTISRDNSKNTLYLQMNSLRAEDTAVYYCAKDSYFGYSKGDWGQGTLVTVSS VL: QSALTQPASVSGSPGQSITISCTGTSSDVGAYNYVSWYQQQPGKAPKLMIYGVSNRPSGVSNRFSGSKSGNAASLTISGLQAEDEADYYCSSYTSSSTYVFGTGTKLTVLG",bound,bound,,,,,,
"ASC06-04-IgG1: affinity-matured ASC06 derivative, VH-CDR3 DSFYGRAKGV (SEQ ID NO: 17) (antibody, V domains shown) VH: QVQLQQSGGGLVQPGGSLRLSCAASGFTFSSYAMSWVRQAPGKGLEWVSAISGSGGSTYYADSVKGRFTISRDNSKNTLYLQMNSLRAEDTAVYYCAKDSFYGRAKGVWGQGTLVTVSS VL: QSALTQPASVSGSPGQSITISCTGTSSDVGAYNYVSWYQQQPGKAPKLMIYGVSNRPSGVSNRFSGSKSGNAASLTISGLQAEDEADYYCSSYTSSSTYVFGTGTKLTVLG",bound,bound,stronger blockage,96.8 ± 3.4,,,,
"ASC06-02-IgG1: affinity-matured ASC06 derivative, VH-CDR3 DSFFGRAKGS (SEQ ID NO: 13) (antibody, V domains shown) VH: QVQLQQSGGGLVQPGGSLRLSCAASGFTFSSYAMSWVRQAPGKGLEWVSAISGSGGSTYYADSVKGRFTISRDNSKNTLYLQMNSLRAEDTAVYYCAKDSFFGRAKGSWGQGTLVTVSS VL: QSALTQPASVSGSPGQSITISCTGTSSDVGAYNYVSWYQQQPGKAPKLMIYGVSNRPSGVSNRFSGSKSGNAASLTISGLQAEDEADYYCSSYTSSSTYVFGTGTKLTVLG",bound,bound,stronger blockage,,,,,
"ASC06-04-IgG1 (antibody, V domains shown, Full length IgG1) VH: QVQLQQSGGGLVQPGGSLRLSCAASGFTFSSYAMSWVRQAPGKGLEWVSAISGSGGSTYYADSVKGRFTISRDNSKNTLYLQMNSLRAEDTAVYYCAKDSFYGRAKGVWGQGTLVTVSS VL: QSALTQPASVSGSPGQSITISCTGTSSDVGAYNYVSWYQQQPGKAPKLMIYGVSNRPSGVSNRFSGSKSGNAASLTISGLQAEDEADYYCSSYTSSSTYVFGTGTKLTVLG",,,,,96.7,0.26,0.000163,620000
